# Values quoted from earlier work in PMC3604136.
# Target: ARNT PAS-B (Homo sapiens) (UniProt P27540)
# Sequence (P27540 356-470): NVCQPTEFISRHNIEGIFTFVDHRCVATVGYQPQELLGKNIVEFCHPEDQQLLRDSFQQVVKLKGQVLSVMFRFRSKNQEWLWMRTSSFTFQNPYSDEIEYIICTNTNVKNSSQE
# Sequence of HIF-2α PAS-B (Q99814 239-350): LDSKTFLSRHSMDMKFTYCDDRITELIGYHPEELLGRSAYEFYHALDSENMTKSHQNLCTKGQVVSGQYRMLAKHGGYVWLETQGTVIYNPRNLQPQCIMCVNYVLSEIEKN
substance,measurement,value
HIF-2α PAS-B (from UniProt Q99814),Kd,100 µM
